Assay results from patent US8846873B2, “Antibodies directed to GPNMB and uses thereof” (Celldex Therapeutics, Inc., priority 2004, dated 2014).
“Also recorded” adds a separate entry of the source. Counter-ions that a name gives are not always drawn. Each block holds one compound with its values, some of them ahead of it. Where a SMILES comes first, the peptide text is derived from it. [ ]: non-standard residue; d: D form. The star is where a group is joined. Dolaproine = CO[C@@H]([C@@H]1CCCN1)[C@@H](C)C(=O)O; Dil = CC[C@H](C)[C@H](NC)[C@@H](CC(=O)O)OC; X1 = C[C@@H](N*)[C@@H](O)c1ccccc1; NMeV = CN[C@H](C(=O)O)C(C)C

Legend:
[1] = system: SK-MEL-5 melanoma xenografts; experiment: Human SK-MEL-5 melanoma xenograft in athymic mice; format: in vivo
Description: (§1) Test Animals: Five- to 6-week old athymic mice (CD-1 nu/nu females), used for human tumor xenografts, were obtained from Harlan Laboratories (Indianapolis, Ind.). Animals were housed in specific pathogen-free conditions, according to the guidelines of the Association for Assessment and Accreditation of Laboratory Animal Care International (AAALAC International). Test animals were provided pelleted food and water ad libitum and kept in a room with conditioned ventilation (HVAC), temperature (22°±2° C.), relative humidity (55%±15%), and photoperiod (12 hr). All studies were carried out with approved institutional animal care and use protocols.
(§2) Human Melanoma Xenograft Models. The tumor inhibitory activity of the CR011-MMAE immunoconjugate was measured in an anti-tumor xenograft model using athymic mice, according to published methods (see Geran et al., Cancer Chemother. Rep. 3:1-104 (1972)). […] When tumors became established (10-20 days), the animals were pair-matched into groups (n=6 mice/group), and treatment was administered by intravenous injection (tail vein).
(§3) The SK-MEL-2 human melanoma (ATCC #HTB-68) was derived from a metastatic site (skin of thigh) of a person with malignant melanoma, and the SK-MEL-5 human melanoma (ATCC #HTB-70) was derived from a metastatic site (axillary lymph node) of a person with malignant melanoma (see Fogh et al., J. Natl. Cancer Inst. 59: 221-226 (1977)). Both cell lines were obtained from the American Type Culture Collection.
(§4) The effects of treatment were monitored by repetitive tumor measurements across 2 diameters with Vernier calipers; tumor size (in mg) was calculated using a standard formula, (W^2×L)/2, assuming a specific gravity of 1.0. Tumor size and body weights were assessed twice weekly. Mice were examined daily, however, and moribund animals were humanely euthanized if clinical indications of excessive pain or distress were noted (i.e., prostration, hunched posture, paralysis/paresis, distended abdomen, ulcerations, abscesses, seizures, and/or hemorrhages). Animals with tumors exceeding 2,000 mg were removed from the study and euthanized humanely.
Soon after the commencement of treatment with paclitaxel, however, significant tumor growth inhibition was observed (P≦0.039) at day 3 after treatment began, and this anti-tumor effect continued, producing 100% growth inhibition (stasis). The responses of SK-MEL-5-bearing test animals to vinblastine and paclitaxel were short-lived. After cessation of treatment at the maximally tolerated doses, tumors resumed rapid, progressive growth.

UACC-62 = experiment: Anti GPNMB antibody mediated indirect cell killing (saporin secondary antibody-toxin conjugate, colony count); format: cell-based, human; details: 5-FU at 600 uM, positive reagent control
Description: UACC-62, a GPNMB antigen expressing cell line, and TK10, a non-expressing cell line were plated onto flat bottom 96-well tissue culture plates (Becton Dickinson, Franklin Lakes, N.J., USA) at a density of 3000 cells per well. Once the cells reached ˜25% confluency, 100 ng/well of secondary antibody-toxin conjugate (goat anti-human IgG-saporin; Advanced Targeting Systems, San Diego, USA, HUM-ZAP; cat. # IT-22) was added. Anti-GPNMB MAbs 2.10.2, 2.22.1, 1.15.1 or isotype control mAb (pK16.3) were added to each well at a final concentration of 10 or 50 ng/mL. An anti-EGFR monoclonal antibody (MS-269-PABX, NeoMarkers, Fremont, Calif., USA) was used as a positive primary antibody control. Chemotherapy reagent 5-FU at 600 uM was used as a positive reagent control. On day 5, the cells were trypsinized, transferred to 6-well tissue culture plates and incubated at 37° C. Plates were examined daily and between 8-10 days, all plates were Giemsa stained and colonies were counted.

GPNMB = biological target: T1, GPNMB (Homo sapiens, UniProt Q14956); experiment: Binning of antibodies (Luminex competitive binding)
T1 construct: made in house; host or cells: HEK 293
T1 sequence (Q14956 23-492): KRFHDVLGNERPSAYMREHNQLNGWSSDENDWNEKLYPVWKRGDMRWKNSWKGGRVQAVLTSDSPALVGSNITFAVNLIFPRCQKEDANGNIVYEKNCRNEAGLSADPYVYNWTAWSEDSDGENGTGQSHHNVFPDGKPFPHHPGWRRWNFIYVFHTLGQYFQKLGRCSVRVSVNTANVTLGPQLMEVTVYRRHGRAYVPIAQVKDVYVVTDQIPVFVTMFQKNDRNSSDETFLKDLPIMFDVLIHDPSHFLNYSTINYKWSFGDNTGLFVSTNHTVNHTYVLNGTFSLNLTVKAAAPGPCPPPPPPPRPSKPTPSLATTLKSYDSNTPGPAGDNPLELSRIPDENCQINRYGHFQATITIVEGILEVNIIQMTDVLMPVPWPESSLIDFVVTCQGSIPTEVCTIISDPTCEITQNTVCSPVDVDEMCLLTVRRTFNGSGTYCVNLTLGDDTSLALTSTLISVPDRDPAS
Description: Certain antibodies, described herein were binned in accordance with the protocol described in U.S. Patent Application Publication No. 20030157730. MxhIgG conjugated beads are prepared for coupling to primary antibody. The volume of supernatant needed is calculated using the following formula: (n+10)×50 μL (where n=total number of samples on plate). Where the concentration is known, 0.5 μg/mL is used. Bead stock is gently vortexed, then diluted in supernatant to a concentration of 2500 of each bead per well or 0.5×10^5/mL and incubated on a shaker in the dark at RT overnight, or 2 hours if at a known concentration of […]. Following aspiration, 50 μL of each bead is added to each well of filter plate, then washed once by adding 100 μL/well wash buffer and aspirating. Antigen and controls are added to filter plate 50 μL/well then covered and allowed to incubate in the dark for 1 hour on shaker. Following a wash step, a secondary unknown antibody is added at 50 μL/well using the same dilution (or concentration if known) as is used for the primary antibody. The plates are then incubated in the dark for 2 hours at RT on shaker followed by a wash step. Next, 50 μL/well biotinylated mxhIgG diluted 1:500 is added and allowed to incubate in the dark for 1 hour on shaker at RT. Following a wash step, 50 μL/well Streptavidin-PE is added at 1:1000 and allowed to incubate in the dark for 15 minutes on shaker at RT.

[2] = system: SK-MEL-2 melanoma xenografts; experiment: Human SK-MEL-2 melanoma xenograft in athymic mice; format: in vivo
Description: as §1, §2, §3, §4
No apparent or statistically significant anti-tumor effects were observed. […] In preliminary studies, tumor regression was complete and was not followed by regrowth of the tumor despite lengthy observation periods (up to 200 days).

SK-Mel-2 cells [3] = experiment: ADCC assay with human PBMC (DELFIA EuTDA cytotoxicity); format: cell-based; details: human PBMC 30 to 100 fold; 2, 5, 10 μg/200 μl
Description: We next examined whether the CR0111gG1 mAb could induce ADCC in SK-MEL-2 cells in culture in the presence of human PBMC. Human PBMC were isolated from whole blood using a Ficoll-Plaque. Briefly, in a 50 mL tube, 15 mL of PBS was added to 20 mL of whole blood which was underlayed with 10 mL Ficoll-Plaque and the tube was centrifuged at 2000 RPM. Mononuclear cells were collected from the interface and washed 3 times with PBS. The ADCC assay was carried out in a 96 well plate using a fluorescence assay for cytolysis from Perkin-Elmer (DELFIA EuTDA Cytotoxic assay). The procedure is based on loading target cells with a fluorescence enhancing ligand (BATDA, bis (acetoxymethyl) terpyridine—dicarboxylate). The hydrophic ligand penetrates the membrane quickly. Within the cell the esterbonds are hydrolyzed to form a hydrophilic ligand (TDA, terpyridine—dicarboxylic acid) which can no longer pass through the membrane. After cytolysis the ligand is released and introduced to the Europium solution. The europium and the ligand form a highly fluorescent and stable chelate (EuTDA). Fluorescence intensity are recorded using excitation and emission wavelengths as λex=340 nm and λem=613 nm, respectively.

SK-Mel-2 cells [4] = experiment: Flow cytometry of CR011 binding to cell surface CG56972/GPNMB; parameters: species or system human; details: SK-MEL-2
Description: (§5) Flow Cytometry: Quantitative analysis of GPNMB expression on the cell surface of cell lines was determined by flow cytometry. […] Cells were fixed in 1% paraformaldehyde/PBS and examined on a Becton Dickinson FACSCalibur flow cytometer. Data analysis was performed with Becton Dickinson Cell Quest software version 3.3 and the geometric mean fluorescence intensity ratio (GMR) was determined for each cell type.
as §5, with “CG56972” for “GPNMB”, “the” for “the cell”, “cytometry (FACS).” for “cytometry.”

Compound: CC(=O)O[C@H]1C(=O)[C@@]2(C)[C@H]([C@H](OC(=O)c3ccccc3)[C@]3(O)C[C@H](OC(=O)[C@H](O)[C@@H](NC(=O)c4ccccc4)c4ccccc4)C(C)=C1C3(C)C)[C@]1(OC(C)=O)CO[C@@H]1C[C@@H]2O [paclitaxel, reference compound]
long-term, tumor-free survivors ([1]; paclitaxel group): One long-term, tumor-free survivor

Compound: O=c1[nH]cc(F)c(=O)[nH]1 [Mab 5-FU, 5-FU]
killing of cells (UACC-62): complete killing

bin (GPNMB; bin assignment of Table 8): VIII
bin (GPNMB; bin assignment of Table 9, Cut-off = 90): VIII
binning signal (Table 8) (GPNMB; paired with 1.1): 91
binning signal (Table 8) (GPNMB; paired with 1.11): 10
binning signal (Table 9) (GPNMB; paired with 1.11): 19
binning signal (Table 8) (GPNMB; paired with 1.12): 15
binning signal (Table 9) (GPNMB; paired with 1.12): 21
binning signal (Table 8) (GPNMB; paired with 1.13): 13
binning signal (Table 9) (GPNMB; paired with 1.13): 5
binning signal (Table 8) (GPNMB; paired with 1.15): 0
binning signal (Table 9) (GPNMB; paired with 1.15): 0
binning signal (Table 8) (GPNMB; paired with 1.2): 79
binning signal (Table 9) (GPNMB; paired with 1.2): 90
binning signal (Table 8) (GPNMB; paired with 1.3): 71
binning signal (Table 9) (GPNMB; paired with 1.3): 51
binning signal (Table 8) (GPNMB; paired with 1.5): 15
binning signal (Table 9) (GPNMB; paired with 1.5): −9
binning signal (Table 8) (GPNMB; paired with 1.7): 21
binning signal (Table 9) (GPNMB; paired with 1.7): 17
binning signal (Table 8) (GPNMB; paired with 1.8): 8
binning signal (Table 9) (GPNMB; paired with 1.8): 12
binning signal (Table 8) (GPNMB; paired with 1.9): 12
binning signal (Table 9) (GPNMB; paired with 1.9): 19
binning signal (Table 8) (GPNMB; paired with BB): −19
binning signal (Table 9) (GPNMB; paired with BB): 59
binning signal (Table 8) (GPNMB; paired with xV5): 89
Compound: 1.15: anti-GPNMB antibody 1.15 of the binning tables; line of the lead mAb 1.15 / CR011

Compound: CC[C@H](C)[C@@H]([C@@H](CC(=O)N1CCC[C@H]1[C@H](OC)[C@@H](C)C(=O)N[C@H](C)[C@@H](O)c1ccccc1)OC)N(C)C(=O)[C@@H](NC(=O)[C@@H](NC)C(C)C)C(C)C [free monomethylauristatin E, monomethylauristatin E, reference compound] (H-[NMeV]V[Dil][Dolaproine]-X1)
tumor response ([2]; CR011-ONC-1, CR011-vcMMAE 5 mg/kg/treatment i.v. q4d x4, components at doses identical to those in the immunoconjugate): lack of responses; also recorded: lack of tumor growth inhibition

Compound: CR011 IgG1: CR011 mAb 1.15.1 switched to IgG1 constant region; heavy chain SEQ ID NO: 395
ADCC / cytolysis of SK-MEL-2 cells (SK-Mel-2 cells [3]): mediated ADCC; also recorded: caused cytolysis of SK-MEL-2 cells in a dose dependent manner
FACS shifts compared to isotype control mAbs (SK-Mel-2 cells [4]): comparable FACS shifts

Compound: CC[C@]1(O)C[C@@H]2CN(CCc3c([nH]c4ccccc34)[C@@](C(=O)OC)(c3cc4c(cc3OC)N(C)[C@H]3[C@@](O)(C(=O)OC)[C@H](OC(C)=O)[C@]5(CC)C=CCN6CC[C@]43[C@@H]65)C2)C1 [vinblastine, vinblastine sulfate, reference compound]
anti-tumor effect ([2]; Study N-386, i.v., CR011-vcMMAE 20, 10, 5 or 2.5 mg/kg q4d x4, vinblastine […] q4d x4): very slight, but not significant, anti-tumor effect
anti-tumor effect ([1]; CR011-ONC-3, i.v., vs saline and PBS control groups): noticeable, but not significant tumor growth inhibition
